Results published in the supplement of paper PMC7877785.
± gives the uncertainty stated by the source.

Experiment: self-splicing fitness, log relative to wild type (ln ratio); higher = more splicing; Tetrahymena group I intron in knt gene, E. coli kanamycin selection, DiMSum; sequences stand for … in CUCUCU…GGAGGGAAAAGUUAUCAGGCAUGCACCUGGUAGCUAGUCUUUAAACCAAUAGAUUGCAUCGGUUUAAAAGGCAAGACCGUCAAAUUGCGGGAAAGGGGUCAACAGCCGUUCAGUACCAAGUCUCAGGGGAAACUUUGAGAUGGCCUUGCAAAGGGUAUGGUAAUAAGCUGACGGACAUGGUCCUAACCACGCAGCCAAGUCCUAAGUCAACAGAUCUUCUGUUGAUAUGGAUGCAGUUCACAGACUAAAUGUCGGUCGGGGAAGAUGUAUUCUUCUCAUAAGAUAUAGUCGGACCUCUCCUUAAUGGGAGCUAGCGGAUGAAGUGAUGCAACACUGGAGCCGCUGGGAACUAAUUUGUAUGCGAAAGUAUAUUGAUUAGUUUUGGAGUACUCGUGGUCG
In short: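 Fitness was computed with DiMSum as the error-weighted combination of replicate fold changes, kanamycin versus none, each normalised to wild type. The library randomised all eight intron nucleotides of the P1ex region, with the intron placed in the knt kanamycin-resistance gene on pET-22b(+) in E. coli BL21(DE3). Six replicate transformations were grown overnight at 37°C or 30°C on LB agar with or without 25 μg/mL kanamycin, plus 100 μg/mL carbenicillin, 50 μM IPTG and 0.2% rhamnose. Pooled colonies were amplicon-sequenced on an Illumina HiSeq 2500.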

For CGAGAGCAAUAUUACGCCAG, which “self-splicing fitness (ln)” value (37 °C) is on record?
Its value is -1.51 ± 0.4.

For CGAGAGCAAUAUUACGCGCA, which “self-splicing fitness (ln)” value (30 °C) is on record?
The value was -3.56 ± 0.48.

What about the “self-splicing fitness (ln)” value (37 °C) of the same sequence?
Its value is -1.38 ± 0.26.

With CGAGAGCAAUAUUACGCGCG as the sequence, how does the “self-splicing fitness (ln)” value (30 °C) read?
Its value is -1.64 ± 0.25.

What does the source list for CGAGAGCAAUAUUACGGUCA?
self-splicing fitness (ln) (30 °C): -3.17 ± 0.27; self-splicing fitness (ln) (37 °C): -2.29 ± 0.3

For CGAGAGCAAUAUUACGUAAC, which “self-splicing fitness (ln)” value (37 °C) is on record?
Its value is -1.98 ± 0.34.

What does the source list for CGAGAGCAAUAUUACGUAGG?
self-splicing fitness (ln) (30 °C): -3.03 ± 0.15; self-splicing fitness (ln) (37 °C): -1.39 ± 0.15

For CGAGAGCAAUAUUACGUCGU, which “self-splicing fitness (ln)” value (37 °C) is on record?
The value was -3.09 ± 0.37.

With CGAGAGCAAUAUUACGUGUA as the sequence, how does the “self-splicing fitness (ln)” value (30 °C) read?
The value was -3.34 ± 0.22.

And the “self-splicing fitness (ln)” value (37 °C)?
Its value is -2.9 ± 0.23.

For CGAGAGCAAUAUUACGUUUG, which “self-splicing fitness (ln)” value (30 °C) is on record?
Its value is -4.63 ± 0.28.

What about the “self-splicing fitness (ln)” value (37 °C) of the same sequence?
The value was -2.12 ± 0.22.

For CGAUAGCAAUAUUACGAAGU, which “self-splicing fitness (ln)” value (30 °C) is on record?
Its value is -2.89 ± 0.18.

And the “self-splicing fitness (ln)” value (37 °C)?
The value was -2.58 ± 0.23.

Which “self-splicing fitness (ln)” value (30 °C) does the source give for CGAUAGCAAUAUUACGACCU here?
Its value is -1.35 ± 0.12.

And the “self-splicing fitness (ln)” value (37 °C)?
The value was 0.288 ± 0.14.

Which “self-splicing fitness (ln)” value (30 °C) does the source give for CGAUAGCAAUAUUACGCAAU here?
The value was -3.43 ± 0.27.

And the “self-splicing fitness (ln)” value (37 °C)?
The value was -2.26 ± 0.25.

Which “self-splicing fitness (ln)” value (30 °C) does the source give for CGAUAGCAAUAUUACGCAUA here?
The value was -3.25 ± 0.28.

What about the “self-splicing fitness (ln)” value (37 °C) of the same sequence?
Its value is -1.8 ± 0.24.

Which “self-splicing fitness (ln)” value (30 °C) does the source give for CGAUAGCAAUAUUACGCCGA here?
The value was -1.92 ± 0.21.

What about the “self-splicing fitness (ln)” value (37 °C) of the same sequence?
Its value is -2.05 ± 0.28.

For CGAUAGCAAUAUUACGCGGA, which “self-splicing fitness (ln)” value (30 °C) is on record?
Its value is -2.21 ± 0.22.

And the “self-splicing fitness (ln)” value (37 °C)?
Its value is -0.662 ± 0.15.

With CGAUAGCAAUAUUACGGCGU as the sequence, how does the “self-splicing fitness (ln)” value (30 °C) read?
Its value is -0.866 ± 0.085.

And the “self-splicing fitness (ln)” value (37 °C)?
Its value is 0.51 ± 0.12.

With CGAUAGCAAUAUUACGGGCA as the sequence, how does the “self-splicing fitness (ln)” value (30 °C) read?
The value was -2.06 ± 0.14.

And the “self-splicing fitness (ln)” value (37 °C)?
The value was -1.53 ± 0.15.

What does the source list for CGAUAGCAAUAUUACGGGGG?
self-splicing fitness (ln) (30 °C): -3.7 ± 0.3; self-splicing fitness (ln) (37 °C): -1.49 ± 0.16

For CGAUAGCAAUAUUACGGUCA, which “self-splicing fitness (ln)” value (30 °C) is on record?
The value was -0.212 ± 0.057.

And the “self-splicing fitness (ln)” value (37 °C)?
Its value is 0.228 ± 0.065.

With CGAUAGCAAUAUUACGGUUA as the sequence, how does the “self-splicing fitness (ln)” value (30 °C) read?
The value was -0.777 ± 0.17.

What about the “self-splicing fitness (ln)” value (37 °C) of the same sequence?
The value was -0.253 ± 0.13.

For CGAUAGCAAUAUUACGGUUG, which “self-splicing fitness (ln)” value (30 °C) is on record?
The value was -1.9 ± 0.15.

What about the “self-splicing fitness (ln)” value (37 °C) of the same sequence?
The value was -0.9 ± 0.13.

What does the source list for CGAUAGCAAUAUUACGUCCG?
self-splicing fitness (ln) (30 °C): -1.4 ± 0.1; self-splicing fitness (ln) (37 °C): -0.5 ± 0.12

For CGAUAGCAAUAUUACGUGUU, which “self-splicing fitness (ln)” value (30 °C) is on record?
The value was -4.25 ± 0.14.

What about the “self-splicing fitness (ln)” value (37 °C) of the same sequence?
Its value is -2.3 ± 0.1.

Which results are given for CGCAAGCAAUAUUACGAAUU?
self-splicing fitness (ln) (30 °C): -2.55 ± 0.2; self-splicing fitness (ln) (37 °C): -3.57 ± 0.46

Which results are given for CGCAAGCAAUAUUACGACUA?
self-splicing fitness (ln) (30 °C): -1.47 ± 0.22; self-splicing fitness (ln) (37 °C): -0.703 ± 0.2

For CGCAAGCAAUAUUACGAGGA, which “self-splicing fitness (ln)” value (30 °C) is on record?
Its value is -3.23 ± 0.24.

And the “self-splicing fitness (ln)” value (37 °C)?
Its value is -2.81 ± 0.29.

What does the source list for CGCAAGCAAUAUUACGAGGC?
self-splicing fitness (ln) (30 °C): -2.71 ± 0.2; self-splicing fitness (ln) (37 °C): -2.84 ± 0.29

For CGCAAGCAAUAUUACGAGUA, which “self-splicing fitness (ln)” value (30 °C) is on record?
The value was -2.53 ± 0.14.

What about the “self-splicing fitness (ln)” value (37 °C) of the same sequence?
Its value is -0.869 ± 0.096.

Which “self-splicing fitness (ln)” value (30 °C) does the source give for CGCAAGCAAUAUUACGAUAA here?
The value was -3.03 ± 0.19.

And the “self-splicing fitness (ln)” value (37 °C)?
Its value is -1.51 ± 0.23.

For CGCAAGCAAUAUUACGCCGC, which “self-splicing fitness (ln)” value (37 °C) is on record?
The value was -1.24 ± 0.49.

What does the source list for CGCAAGCAAUAUUACGGACG?
self-splicing fitness (ln) (30 °C): -1.45 ± 0.1; self-splicing fitness (ln) (37 °C): -0.532 ± 0.11

Which results are given for CGCAAGCAAUAUUACGGACU?
self-splicing fitness (ln) (30 °C): -1.39 ± 0.08; self-splicing fitness (ln) (37 °C): 0.158 ± 0.082

For CGCAAGCAAUAUUACGGAGU, which “self-splicing fitness (ln)” value (30 °C) is on record?
Its value is -3.16 ± 0.2.

What about the “self-splicing fitness (ln)” value (37 °C) of the same sequence?
Its value is -1.68 ± 0.18.

For CGCAAGCAAUAUUACGGGCA, which “self-splicing fitness (ln)” value (30 °C) is on record?
The value was 0.0951 ± 0.064.

And the “self-splicing fitness (ln)” value (37 °C)?
The value was -0.199 ± 0.075.

What does the source list for CGCAAGCAAUAUUACGGGCU?
self-splicing fitness (ln) (30 °C): -1.68 ± 0.12; self-splicing fitness (ln) (37 °C): -0.144 ± 0.16

What does the source list for CGCAAGCAAUAUUACGGGUA?
self-splicing fitness (ln) (30 °C): -1.68 ± 0.086; self-splicing fitness (ln) (37 °C): -0.81 ± 0.09

Which “self-splicing fitness (ln)” value (30 °C) does the source give for CGCAAGCAAUAUUACGGUUG here?
Its value is -2.25 ± 0.098.

And the “self-splicing fitness (ln)” value (37 °C)?
Its value is -1.18 ± 0.096.

Which results are given for CGCAAGCAAUAUUACGUAGG?
self-splicing fitness (ln) (30 °C): -1.24 ± 0.057; self-splicing fitness (ln) (37 °C): -0.509 ± 0.075

What does the source list for CGCAAGCAAUAUUACGUCCC?
self-splicing fitness (ln) (30 °C): -2.84 ± 0.34; self-splicing fitness (ln) (37 °C): -0.615 ± 0.26

Which “self-splicing fitness (ln)” value (30 °C) does the source give for CGCCAGCAAUAUUACGAAAA here?
The value was -3.4 ± 0.29.

And the “self-splicing fitness (ln)” value (37 °C)?
The value was -2.7 ± 0.2.

With CGCCAGCAAUAUUACGACAG as the sequence, how does the “self-splicing fitness (ln)” value (30 °C) read?
The value was -0.00427 ± 0.052.

And the “self-splicing fitness (ln)” value (37 °C)?
Its value is 0.18 ± 0.067.

Which results are given for CGCCAGCAAUAUUACGACUC?
self-splicing fitness (ln) (30 °C): -3.02 ± 0.22; self-splicing fitness (ln) (37 °C): -2.21 ± 0.25

Which results are given for CGCCAGCAAUAUUACGACUG?
self-splicing fitness (ln) (30 °C): -0.729 ± 0.13; self-splicing fitness (ln) (37 °C): 0.335 ± 0.15

What does the source list for CGCCAGCAAUAUUACGAGGU?
self-splicing fitness (ln) (30 °C): -4.39 ± 0.28; self-splicing fitness (ln) (37 °C): -1.89 ± 0.18

What does the source list for CGCCAGCAAUAUUACGAUCG?
self-splicing fitness (ln) (30 °C): -0.715 ± 0.063; self-splicing fitness (ln) (37 °C): -0.476 ± 0.092

Which results are given for CGCCAGCAAUAUUACGCAGU?
self-splicing fitness (ln) (30 °C): -4.04 ± 0.18; self-splicing fitness (ln) (37 °C): -2.18 ± 0.16

With CGCCAGCAAUAUUACGCCCG as the sequence, how does the “self-splicing fitness (ln)” value (30 °C) read?
The value was -1.47 ± 0.14.

What about the “self-splicing fitness (ln)” value (37 °C) of the same sequence?
The value was -0.959 ± 0.19.

For CGCCAGCAAUAUUACGCCUG, which “self-splicing fitness (ln)” value (30 °C) is on record?
Its value is -1.21 ± 0.1.

What about the “self-splicing fitness (ln)” value (37 °C) of the same sequence?
Its value is -0.608 ± 0.096.

What does the source list for CGCCAGCAAUAUUACGCGCC?
self-splicing fitness (ln) (30 °C): -1.82 ± 0.27; self-splicing fitness (ln) (37 °C): -1.15 ± 0.27
